{
  "source": "paper doi:10.1101/2023.05.08.539884",
  "key": {"UBR4_(4730-5183) (human) [1]": {"target": "UBR4_(4730-5183) (human) (UniProt Q5T4S7)", "sequence (Q5T4S7 4730-5183)": "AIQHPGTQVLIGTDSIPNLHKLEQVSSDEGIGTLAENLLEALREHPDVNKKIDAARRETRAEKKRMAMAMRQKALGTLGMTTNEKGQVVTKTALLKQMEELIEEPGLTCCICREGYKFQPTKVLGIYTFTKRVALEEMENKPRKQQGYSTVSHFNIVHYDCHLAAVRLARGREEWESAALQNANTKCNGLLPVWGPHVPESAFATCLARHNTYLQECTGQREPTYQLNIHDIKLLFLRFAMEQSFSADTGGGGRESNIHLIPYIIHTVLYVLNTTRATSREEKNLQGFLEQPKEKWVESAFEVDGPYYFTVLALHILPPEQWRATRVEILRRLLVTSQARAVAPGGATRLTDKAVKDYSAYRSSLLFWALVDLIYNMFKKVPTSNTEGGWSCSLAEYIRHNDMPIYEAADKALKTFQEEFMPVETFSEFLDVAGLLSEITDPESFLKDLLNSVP", "assay": "ITC"}, "UBR4_(4730-5183) (human) [2]": {"target": "UBR4_(4730-5183) (human) (UniProt Q5T4S7)", "assay": "ITC", "remark": "listed apart in the source"}},
  "note": "Like-named read-outs stand apart in the source and are kept apart here.",
  "data": [
    {"substance": "UBE2A (from UniProt P49459 1-152) (enzyme)", "values": [
      {"measurement": "dH", "setting": "UBR4_(4730-5183) (human) [1]", "result": -7.37, "unit": "kcal/mol"},
      {"measurement": "stoichiometry N", "setting": "UBR4_(4730-5183) (human) [1]", "result": 0.904},
      {"measurement": "stoichiometry N", "setting": "UBR4_(4730-5183) (human) [2]", "result": 1}
    ]}
  ]
}
